The target in data set [1] is WGMDY1 (WGMDY1 fused to a 10-mer cell-penetrating peptide sequence of HIV tat-1 protein, unphosphorylated form).
Data set [2] concerns the target pWGMDY1 (WGMDY1 fused to a 10-mer cell-penetrating peptide sequence of HIV tat-1 protein, phosphorylated form).

Consider 1 protein from patent US20080004215.

B1: purified glutathione S-transferase (GST) fusion of the phosphatase domain of SHP2 (protein)
chain: GFWEEFETLQQQECKLLYSRKEGQRQENKNKNRYKNILPFDHTRVVLHDGDPNEPVSDYINANIIMPEFETKCNNSKPKKSYIATQGCLQNTVNDFWRMVFQENSRVIVMTTKEVERGKSKCVKYWPDEYALKEYGVMRVRNVKESAAHDYTLRELKLSKVGQGNTERTVWQYHFRTWPDHGVPSDPGGVLDFLEEVHHKQESIMDAGPVVVHCSAGIGRTGTFIVIDILIDIIREKGVDCDIDVPKTIQMVRSQRSGMVQTEAQYRFIYMAVQHYIETLQRRIEEEQKSKRKGHEYTNIKYSLADQTSGDQSPLPPCTPTPPCAEMREDSARVYENVGLMQQQKSFR
For B1, the “in vitro phosphatase assay: dephosphorylation of para-nitrophenolphosphate (pN) by P, absorbance (OD) at 405 nm at the 5 minutes time point” value in data set [1] is on record as “Addition of pWGMDY1, but not WGMDY1, inhibited the dephosphorylation reaction”; in data set [2], “Addition of pWGMDY1, but not WGMDY1, inhibited the dephosphorylation reaction”.
